According to the Immune Epitope Database (IEDB):

Tests used:
Assay in all cases: IEDB peptide-MHC binding, purified MHC/competitive/fluorescence; filed as Kd, often an IC50 or EC50 that approximates it; ≥ and ≤ were set here for values at or beyond the usual limits of such assays
Conditions in all cases: source organism: Entamoeba histolytica HM-1:IMSS
[1] = target: HLA-B*15:01
[2] = target: HLA-A*01:01
[3] = target: HLA-B*08:01
[4] = target: HLA-A*29:02
[5] = target: HLA-A*02:03
[6] = target: HLA-B*57:01
[7] = target: HLA-B*53:01
[8] = target: HLA-A*02:01

Question: What does the source list for EVRKAIEFV?
Answer: Kd [1]: ≥ 20 µM; Kd [2]: ≥ 5 µM; Kd [3]: ≥ 5 µM; Kd [4]: ≥ 20 µM; Kd [5]: ≥ 20 µM; Kd [6]: ≥ 20 µM; Kd [7]: ≥ 5 µM; Kd [8]: ≥ 20 µM
